Laboratory results taken from patent US20240132578A1.

Columns and labels:
Assay in all cases: cell-based or functional assay
[1] = biological target: HIV-1 Env of isolate MGRM-G-024 (subtype G), on pseudovirus (HIV-1)
[2] = biological target: aMLV envelope, on pseudovirus (negative control)
[3] = biological target: HIV-1 Env of isolate MGRM-C-009 (subtype C) (HIV-1)
[4] = biological target: HIV-1 Env of isolate MGRM-C-017 (subtype C) (HIV-1)
[5] = biological target: HIV-1 Env of isolate MGRM-C-007 (subtype C) (HIV-1)
[6] = biological target: HIV-1 Env of isolate MGRM-G-001 (subtype G), on pseudovirus (HIV-1)
[7] = biological target: HIV-1 Env of isolate MGRM-G-014 (subtype G), on pseudovirus (HIV-1)
[8] = biological target: HIV-1 Env of isolate MGRM-C-022 (subtype C) (HIV-1)
[9] = biological target: HIV-1 Env of isolate MGRM-C-028 (subtype C) (HIV-1)
[10] = biological target: HIV-1 Env of isolate MGRM-G-016 (subtype G), on pseudovirus (HIV-1)
[11] = biological target: HIV-1 Env of isolate MGRM-G-027 (subtype G), on pseudovirus (HIV-1)
[12] = biological target: HIV-1 Env of isolate MGRM-G-025 (subtype G), on pseudovirus (HIV-1)
[13] = biological target: HIV-1 Env of isolate MGRM-C-027 (subtype C) (HIV-1)
[14] = biological target: HIV-1 Env of isolate MGRM-C-014 (subtype C) (HIV-1)
[15] = biological target: HIV-1 Env of isolate MGRM-G-011 (subtype G), on pseudovirus (HIV-1)
[16] = biological target: HIV-1 Env of isolate 98IN022 (subtype C) (HIV-1)
[17] = biological target: HIV-1 JR-CSF Env N478A (HIV-1 JR-CSF) (UniProt P20871)
[18] = biological target: HIV-1 Env of isolate MGRM-C-010 (subtype C) (HIV-1)
[19] = biological target: HIV-1 Env of isolate MGRM-G-009 (subtype G), on pseudovirus (HIV-1)
[20] = biological target: HIV-1 Env of isolate MGRM-C-020 (subtype C) (HIV-1)
[21] = biological target: HIV-1 Env of isolate 93MW959 (subtype C) (HIV-1)
[22] = biological target: HIV-1 Env of isolate 97ZA012 (subtype C) (HIV-1)
[23] = biological target: HIV-1 Env of isolate MGRM-G-004 (subtype G), on pseudovirus (HIV-1)
[24] = biological target: HIV-1 Env of isolate MGRM-G-015 (subtype G), on pseudovirus (HIV-1)
[25] = biological target: HIV-1 Env of isolate MGRM-G-017 (subtype G), on pseudovirus (HIV-1)
[26] = biological target: HIV-1 Env of isolate MGRM-C-025 (subtype C) (HIV-1)
[27] = biological target: HIV-1 Env of isolate MGRM-C-001 (subtype C) (HIV-1)
[28] = biological target: HIV-1 Env of isolate MGRM-C-005 (subtype C) (HIV-1)
[29] = biological target: HIV-1 Env of isolate MGRM-G-006 (subtype G), on pseudovirus (HIV-1)
[30] = biological target: HIV-1 Env of isolate MGRM-C-023 (subtype C) (HIV-1)
[31] = biological target: HIV-1 Env of isolate MGRM-G-028 (subtype G), on pseudovirus (HIV-1)
[32] = biological target: HIV-1 Env of isolate MGRM-C-024 (subtype C) (HIV-1)
[33] = biological target: HIV-1 Env of isolate MGRM-C-004 (subtype C) (HIV-1)
[34] = biological target: HIV-1 Env of isolate MGRM-C-015 (subtype C) (HIV-1)
[35] = biological target: HIV-1 Env of isolate MGRM-C-026 (subtype C) (HIV-1)
[36] = biological target: HIV-1 Env of isolate MGRM-C-008 (subtype C) (HIV-1)
[37] = biological target: HIV-1 JR-CSF Env D477A (HIV-1 JR-CSF) (UniProt P20871)
[38] = biological target: HIV-1 Env of isolate MGRM-C-019 (subtype C) (HIV-1)
[39] = biological target: HIV-1 Env of isolate MGRM-C-006 (subtype C) (HIV-1)
[40] = biological target: HIV-1 Env of isolate MGRM-G-013 (subtype G), on pseudovirus (HIV-1)
[41] = biological target: HIV-1 Env of isolate MGRM-G-019 (subtype G), on pseudovirus (HIV-1)
[42] = biological target: HIV-1 Env of isolate MGRM-C-012 (subtype C) (HIV-1)
[43] = biological target: HIV-1 Env of isolate MGRM-C-002 (subtype C) (HIV-1)
[44] = biological target: HIV-1 Env of isolate MGRM-C-013 (subtype C) (HIV-1)

B1: PGT-125 (antibody, V domains shown)
VH: QSQLQESGPRLVEASETLSLTCNVSGESTGACTYFWGWVRQAPGKGLEWIGSLSHCQSFWGSGWTFHNPSLKSRLTISLDTPKNQVFLKLTSLTAADTATYYCARFDGEVLVYNHWPKPAWVDLWGRGIPVTVSS
VL: QSALTQPPSASGSPGQSITISCNGTATNFVSWYQQFPDKAPKLIIFGVDKRPPGVPDRFSGSRSGTTASLTVSRLQTDDEAVYYCGSLVGNWDVIFGGGTTLTVL
IC50 (µg/mL), neutralization of pseudovirus [1]: > 50 µg/mL | IC50 (µg/mL), neutralization of pseudovirus [2]: > 50 µg/mL | IC50 (µg/mL), pseudovirus neutralization [3]: > 50 µg/mL | IC50 (µg/mL), pseudovirus neutralization [4]: 2.36 µg/mL | IC50 (µg/mL), pseudovirus neutralization [5]: > 50 µg/mL | IC50 (µg/mL), neutralization of pseudovirus [6]: 0.033 µg/mL | IC50 (µg/mL), neutralization of pseudovirus [7]: 0.007 µg/mL | IC50 (µg/mL), pseudovirus neutralization [8]: 1.23 µg/mL | IC50 (µg/mL), pseudovirus neutralization [9]: 14 µg/mL | IC50 (µg/mL), neutralization of pseudovirus [10]: > 50 µg/mL | IC50 (µg/mL), neutralization of pseudovirus [11]: 34.4 µg/mL | IC50 (µg/mL), neutralization of pseudovirus [12]: > 50 µg/mL | IC50 (µg/mL), pseudovirus neutralization [13]: > 50 µg/mL | IC50 (µg/mL), pseudovirus neutralization [14]: > 50 µg/mL | IC50 (µg/mL), neutralization of pseudovirus [15]: > 50 µg/mL | IC50 (µg/mL), pseudovirus neutralization [16]: 22.1 µg/mL | Fold IC50 increase relative to wild-type [17]: 1.5 fold | IC50 (µg/mL), pseudovirus neutralization [18]: > 50 µg/mL | IC50 (µg/mL), neutralization of pseudovirus [19]: > 50 µg/mL | IC50 (µg/mL), pseudovirus neutralization [20]: > 50 µg/mL | IC50 (µg/mL), pseudovirus neutralization [21]: 37.5 µg/mL | IC50 (µg/mL), pseudovirus neutralization [22]: 2.46 µg/mL | IC50 (µg/mL), neutralization of pseudovirus [23]: > 50 µg/mL | IC50 (µg/mL), neutralization of pseudovirus [24]: > 50 µg/mL | IC50 (µg/mL), neutralization of pseudovirus [25]: > 50 µg/mL | IC50 (µg/mL), pseudovirus neutralization [26]: 42.5 µg/mL | IC50 (µg/mL), pseudovirus neutralization [27]: > 50 µg/mL | IC50 (µg/mL), pseudovirus neutralization [28]: 2.09 µg/mL | IC50 (µg/mL), neutralization of pseudovirus [29]: > 50 µg/mL | IC50 (µg/mL), pseudovirus neutralization [30]: 1.31 µg/mL | IC50 (µg/mL), neutralization of pseudovirus [31]: 0.012 µg/mL | IC50 (µg/mL), pseudovirus neutralization [32]: > 50 µg/mL | IC50 (µg/mL), pseudovirus neutralization [33]: 1.82 µg/mL | IC50 (µg/mL), pseudovirus neutralization [34]: > 50 µg/mL | IC50 (µg/mL), pseudovirus neutralization [35]: 0.005 µg/mL | IC50 (µg/mL), pseudovirus neutralization [36]: > 50 µg/mL | Fold IC50 increase relative to wild-type [37]: 3.4 fold | IC50 (µg/mL), pseudovirus neutralization [38]: 0.13 µg/mL | IC50 (µg/mL), pseudovirus neutralization [39]: 0.015 µg/mL | IC50 (µg/mL), neutralization of pseudovirus [40]: > 50 µg/mL | IC50 (µg/mL), neutralization of pseudovirus [41]: > 50 µg/mL | IC50 (µg/mL), pseudovirus neutralization [42]: > 50 µg/mL | IC50 (µg/mL), pseudovirus neutralization [43]: 0.008 µg/mL | IC50 (µg/mL), pseudovirus neutralization [44]: > 50 µg/mL
